Holding throughout (conditions): both partners purified
For assay [1], the target named is T1, HAUSP TRAF-like domain (residues 53–206) (UniProt Q93009 53-206).
T1 construct: Cloned into pGEX-2T; source: E. coli BL21(DE3), purified to homogeneity
In words: SEC; gel filtration on Superdex-200 (10/30); proteins incubated at 4 °C for at least 45 min; 25 mM Tris (pH 8.0), 100 mM NaCl, 2 mM DTT; fractions on SDS-PAGE, Coomassie. Background: SEC sorts molecules by how far they enter the pores of the column.

The target of assay [2] is T1, HAUSP TRAF-like domain (residues 53–206). Description: ITC; 10 mM HEPES (pH 8.0), 100 mM NaCl; 4 °C. (ITC needs no label: the signal is the heat of the interaction.)
Assay [3] concerns the target T2, HAUSP TRAF-like domain (residues 1–206) (UniProt Q93009 1-206).
T2 construct: Construct not described in the methods; source: purified to homogeneity as previously described
Description: SEC; gel filtration on Superdex-200 (10/30); proteins incubated at 4 °C for at least 45 min; 25 mM Tris (pH 8.0), 100 mM NaCl, 2 mM DTT; fractions on SDS-PAGE, Coomassie.

T1 sequence (Q93009 53-206): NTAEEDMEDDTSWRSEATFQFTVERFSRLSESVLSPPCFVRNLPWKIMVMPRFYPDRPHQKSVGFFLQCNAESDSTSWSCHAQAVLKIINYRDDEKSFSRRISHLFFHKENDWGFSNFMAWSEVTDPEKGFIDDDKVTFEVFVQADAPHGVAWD
T2 sequence (Q93009 1-206): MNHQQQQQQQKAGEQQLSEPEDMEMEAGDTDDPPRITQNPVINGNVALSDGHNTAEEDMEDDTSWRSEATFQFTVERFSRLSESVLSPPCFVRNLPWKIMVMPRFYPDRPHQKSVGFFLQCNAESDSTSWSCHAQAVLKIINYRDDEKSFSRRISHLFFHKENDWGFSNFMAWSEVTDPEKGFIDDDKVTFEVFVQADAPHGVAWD

B1: MDM2 fragment (residues 223–289) (domain or fragment, human, UniProt Q00987 223-289, looked up)
chain: DLDAGVSEHSGDWLDQDSVSDQFSVEFEVESLDSEDYSLSEEGQELSDEDDEVYQVTVYQAGESDTD
notes: source: purified to homogeneity as previously described
Turning to B1, in assay [1], the binding result was “binds”.

B2: MDM2 fragment (residues 170–232) (domain or fragment, human, UniProt Q00987 170-232, looked up)
chain: ENSDELSGERQRKRHKSDSISLSFDESLALCVIREICCERSSSSESTGTPSNPDLDAGVSEHS
notes: as for B1
B2: the binding result in assay [1] is recorded as “binds”.

B3: MDM2 peptide (residues 208–242) (peptide, UniProt Q00987 208-242, looked up)
peptide: ERSSSSESTGTPSNPDLDAGVSEHSGDWLDQDSVS
notes: human MDM2, residues 208-242; also called MDM2 (residues 208–242) peptide
As to B3, the dissociation constant (Kd) in assay [2] was 3000 nM.

B4: MDM2 (residues 208–289) (domain or fragment, human, UniProt Q00987 208-289, looked up)
chain: ERSSSSESTGTPSNPDLDAGVSEHSGDWLDQDSVSDQFSVEFEVESLDSEDYSLSEEGQELSDEDDEVYQVTVYQAGESDTD
notes: also called MDM2 fragment; source: purified to homogeneity as previously described
On to B4, for which, in assay [3], the binding result is on record as “binds”.

Broadly, the Kd is the concentration at which binding is half-saturated. Higher therefore signals weaker binding.

The values are drawn from publication PMC1334386 (PLoS Biology, 2006).
